The results in this text go back to patent USRE50631 (VELOSBIO, dated 2025).

The target of test [1] is T1, human receptor tyrosine kinase like orphan receptor 1 (ROR1) (human, UniProt Q01973 30-937). Kind of test: cell-based or functional assay.
Test [2] concerns the target T1, human receptor tyrosine kinase like …. Kind of test: binding to Jeko cells; column 'ADC-R Binding KD (nM)', method not described.
Test [3] has the same target. Kind of test: flow cytometry on Jeko-1 cells. On the technique in general: In flow cytometry, cells or beads pass a laser one at a time.
The target is the same in test [4]. Description: flow cytometry on MDA-MB-231 cells.
Test [5] shares this target. Description: flow cytometry on Jeko-1 cells (FIG. 3A).
For test [6] the target is unchanged. Description: flow cytometry on Jeko-1 cells (FIG. 3B).
The target is the same in test [7]. Kind of test: binding to Jeko-1 cells; column 'ADC-A Binding KD (nM)', method not described.
Test [8] shares this target. Description: binding to MDA-MB-231 cells; column 'ADC-A Binding KD (nM)', method not described.
Test [9] has the same target. Kind of test: flow cytometry on Jeko-1 cells, PE anti-human IgG secondary, % maximal binding.
For test [10] the target is unchanged. Description: flow cytometry on MDA-MB-231 cells, PE anti-human IgG secondary, % maximal binding.
Test [11] has the same target. Kind of test: binding to Jeko cells; column 'ADC-L Binding KD (nM)', method not described.
Test [12] shares this target. Kind of test: binding to Jeko cells; column 'ADC-N Binding KD (nM)', method not described.
For test [13] the target is unchanged. Description: binding to Jeko cells; column 'ADC-Q Binding KD (nM)', method not described.
Test [14] shares this target. Kind of test: binding to Jeko cells; column 'ADC-P Binding KD (nM)', method not described.
Test [15] shares this target. Description: binding to Jeko cells; column 'ADC-M Binding KD (nM)', method not described.
Test [16] has the same target. Kind of test: binding to Jeko cells; column 'ADC-O Binding KD (nM)', method not described.

Where only a bound is given, the exact number is not on record here.

For orientation: Kd means the constant that tells how readily two partners part at equilibrium. A lower Kd goes with higher affinity. For orientation: EC50 means the concentration at which the effect is half-maximal.

T1 sequence (Q01973 30-937): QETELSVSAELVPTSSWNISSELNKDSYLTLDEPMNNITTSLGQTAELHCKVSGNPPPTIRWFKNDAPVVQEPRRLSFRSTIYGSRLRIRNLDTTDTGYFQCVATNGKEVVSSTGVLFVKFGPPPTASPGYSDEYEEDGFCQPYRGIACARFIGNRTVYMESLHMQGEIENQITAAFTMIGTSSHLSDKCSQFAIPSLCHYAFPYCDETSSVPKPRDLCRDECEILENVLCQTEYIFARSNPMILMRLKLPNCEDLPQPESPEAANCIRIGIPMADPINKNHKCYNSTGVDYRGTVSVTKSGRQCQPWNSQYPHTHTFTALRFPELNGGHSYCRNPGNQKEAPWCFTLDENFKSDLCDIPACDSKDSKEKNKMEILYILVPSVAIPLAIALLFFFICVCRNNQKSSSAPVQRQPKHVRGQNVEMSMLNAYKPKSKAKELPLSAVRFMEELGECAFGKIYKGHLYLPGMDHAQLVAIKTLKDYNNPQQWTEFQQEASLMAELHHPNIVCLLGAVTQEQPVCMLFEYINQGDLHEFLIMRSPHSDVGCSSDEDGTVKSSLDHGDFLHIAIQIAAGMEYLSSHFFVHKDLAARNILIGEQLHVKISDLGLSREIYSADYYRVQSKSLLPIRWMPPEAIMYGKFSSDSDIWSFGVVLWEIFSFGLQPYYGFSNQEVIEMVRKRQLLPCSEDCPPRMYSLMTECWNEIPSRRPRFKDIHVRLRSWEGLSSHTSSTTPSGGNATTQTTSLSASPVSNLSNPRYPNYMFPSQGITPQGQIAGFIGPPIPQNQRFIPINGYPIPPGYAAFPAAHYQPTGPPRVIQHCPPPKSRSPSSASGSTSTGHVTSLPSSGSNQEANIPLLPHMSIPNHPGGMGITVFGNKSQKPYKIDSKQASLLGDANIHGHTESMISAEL

B1: ADC-E (antibody, human IgG1, kappa, V domains shown)
VH: QVQLQESGPGLVKPSQTLSLTCTVSGYAFTAYNIHWVRQAPGQGLEWMGSFDPYDGGSSYNQKFKDRLTISKDTSKNQVVLTMTNMDPVDTATYYCARGWYYFDYWGHGTLVTVSS
VL: DIVMTQTPLSLPVTPGEPASISCRASKSISKYLAWYQQKPGQAPRLLIYSGSTLQSGIPPRFSGSGYGTDFTLTINNIESEDAAYYFCQQHDESPYTFGEGTKVEIKR
modifications: SC-VC-PAB-MMAE bonded via lysine residues of the antibody (chain and positions not stated)
As to B1, in [1], the “IC50, cell viability (CellTiter-Glo, 72 h), Bt549 cells” value (shortened to “IC50, cell viability … Bt549 cells”) amounted to 74.4 nM; the “IC50, cell viability (CellTiter-Glo, 72 h), DOHH2 cells” value (from here on “IC50, cell viability … DOHH2 cells”) amounted to 89.6 nM; the “IC50, cell viability (CellTiter-Glo, 72 h), HBL-1 cells” value (“IC50, cell viability … HBL-1 cells” for short) worked out at 147 nM; the “IC50, cell viability (CellTiter-Glo, 72 h), JHOM1 cells” value (“IC50, cell viability … JHOM1 cells” for short) came to 32.9 nM. For the same molecule, in [1], the “IC50, cell viability (CellTiter-Glo, 72 h), MDA-MB-468 cells” value (“IC50, cell viability … MDA-MB-468 cells” for short) is 80.1 nM; the “IC50, cell viability (CellTiter-Glo, 72 h), SKOvr3 cells” value (from here on “IC50, cell viability … SKOvr3 cells”) came to 201 nM; the “IC50, cell viability (CellTiter-Glo, 72 h), TMD-8 cells” value (from here on “IC50, cell viability … TMD-8 cells”) is 94.3 nM; the “IC50, cell viability (CellTiter-Glo, 72 h), TOV112D cells” value (“IC50, cell viability … TOV112D cells” for short) amounted to 57.8 nM.

B2: ADC-R (antibody, human IgG1, kappa, V domains shown)
VH: B1 VH
VL: B1 VL
modifications: deglycosylated with PNGase F; azido-PEG3-amine put on glutamine residues by microbial transglutaminase, then DBCO-PEG4-VC-PAB-DMEA-PNU-159682 via a triazole (chain and positions not stated); DAR 2.1
notes: also called Ab1-DBCO-PEG4-VC-PAB-DMEA-PNU-159682
For the molecule B2, in [2], the affinity, expressed as Kd, was 0.25 nM.

B3: ADC-A (antibody, human IgG1, kappa, V domains shown)
VH: B1 VH
VL: B1 VL
modifications: MC-VC-PAB-MMAE bonded via cysteine residues of the antibody (chain and positions not stated); MC-VC-PAB-MMAE bonded via cysteine residues of the antibody (chain and positions not stated); DAR 3.89 to 5.09
notes: Antibody-drug conjugate of Ab1; also called Ab1-MC-VC-PAB-MMAE
On to B3, for which, in test [1], the “IC50, cell viability (CellTiter-Glo, 72 h), A2008 cells” value (shortened to “IC50, cell viability … A2008 cells”) was 125 nM; the “IC50, cell viability … Bt549 cells” value was found to be 13.5 nM; the “IC50, cell viability … DOHH2 cells” value is 129 nM; the “IC50, cell viability … HBL-1 cells” value turned out to be 118 nM. In test [1], the “IC50, cell viability (CellTiter-Glo, 72 h), HCC1187 cells” value (“IC50, cell viability … HCC1187 cells” below) is 6.8 nM; the “IC50, cell viability … JHOM1 cells” value amounted to 15.6 nM; the “IC50, cell viability … MDA-MB-468 cells” value came out at 23.5 nM; the “IC50, cell viability … SKOvr3 cells” value amounted to 62.6 nM. For the same molecule, in test [1], the “IC50, cell viability … TMD-8 cells” value worked out at 122 nM and the “IC50, cell viability … TOV112D cells” value worked out at 62.4 nM. This molecule returned an EC50 in test [3] of 0.017 µg/mL. In [4], this molecule displayed an EC50 of 0.0485 µg/mL. For the same molecule, the EC50 in test [5] was 0.0216 µg/mL. Besides, in test [6], the midpoint of the response, the EC50, lay at 0.0221 µg/mL. Also, the affinity in test [7], expressed as Kd, was 0.1 nM. In [8], the Kd came out at 0.32 nM.

B4: ADC-B (antibody, human IgG1, kappa, V domains shown)
VH: B1 VH
VL: B1 VL
modifications: SMCC-DM1 bonded via lysine residues of the antibody (chain and positions not stated); SMCC-DM1 bonded via lysine residues of the antibody (chain and positions not stated); DAR 3.0 to 3.20
For B4, in test [1], the “IC50, cell viability … A2008 cells” value worked out at 49 nM; the “IC50, cell viability … Bt549 cells” value was 20.2 nM; the “IC50, cell viability … DOHH2 cells” value worked out at 78.3 nM; the “IC50, cell viability … HBL-1 cells” value came out at 70.1 nM. In test [1], the “IC50, cell viability … HCC1187 cells” value was found to be 6.2 nM; the “IC50, cell viability … JHOM1 cells” value is 24.3 nM; the “IC50, cell viability … MDA-MB-468 cells” value is 18.8 nM; the “IC50, cell viability … SKOvr3 cells” value was found to be 78.7 nM. In test [1], the “IC50, cell viability … TMD-8 cells” value was determined as 50 nM and the “IC50, cell viability … TOV112D cells” value came out at 34.2 nM.

B5: Ab1 (antibody, human IgG1, kappa, V domains shown)
VH: B1 VH
VL: B1 VL
notes: also called unconjugated Ab1; parental antibody Ab1
B5: the concentration giving a half-maximal response (EC50) in test [5] came out at 0.0164 µg/mL; in test [6], 0.0165 µg/mL; in [9] it was 0.0136 µg/mL; in [10] it was 0.0328 µg/mL.

B6: ADC-L (antibody, human IgG1, kappa, V domains shown)
VH: B1 VH
VL: B1 VL
modifications: MAL-DPR-VC-PAB-MMAE bonded via cysteine residues of the antibody (chain and positions not stated)
notes: Antibody-drug conjugate of Ab1; also called Ab1-MAL-DPR-VC-PAB-MMAE
The molecule B6 gave a Kd in test [11] of 0.15 nM.

B7: ADC-N (antibody, human IgG1, kappa, V domains shown)
VH: B1 VH
VL: B1 VL
modifications: MAL-PEG4-VC-PAB-DMEA-PNU-159682 bonded via cysteine residues of the antibody (chain and positions not stated)
notes: Antibody-drug conjugate of Ab1; also called Ab1-MAL-PEG4-VC-PAB-DMEA-PNU-159682
B7 gave a Kd in [12] of 0.13 nM.

B8: ADC-C (antibody, human IgG1, kappa, V domains shown)
VH: B1 VH
VL: B1 VL
modifications: MAL-VC-PAB-DM1 bonded via cysteine residues of the antibody (chain and positions not stated)
Regarding B8, in [1], the “IC50, cell viability … A2008 cells” value was greater than 1000 nM; the “IC50, cell viability … Bt549 cells” value was greater than 1000 nM; the “IC50, cell viability … DOHH2 cells” value was greater than 1000 nM; the “IC50, cell viability … HBL-1 cells” value is greater than 1000 nM. Besides, in test [1], the “IC50, cell viability … HCC1187 cells” value was greater than 1000 nM; the “IC50, cell viability … JHOM1 cells” value is greater than 1000 nM; the “IC50, cell viability … MDA-MB-468 cells” value was greater than 1000 nM; the “IC50, cell viability … SKOvr3 cells” value was greater than 1000 nM. Further, in test [1], the “IC50, cell viability … TMD-8 cells” value is greater than 1000 nM and the “IC50, cell viability … TOV112D cells” value is greater than 1000 nM.

B9: ADC-Q (antibody, human IgG1, kappa, V domains shown)
VH: B1 VH
VL: B1 VL
modifications: deglycosylated with PNGase F; azido-PEG3-amine put on glutamine residues by microbial transglutaminase, then DBCO-(PEG2-VC-PAB-MMAE)2 via a triazole (chain and positions not stated); DAR 4.4
notes: also called Ab1-DBCO-(PEG2-VC-PAB-MMAE)2
For B9, in test [13], the Kd is 0.23 nM.

B10: ADC-P (antibody, human IgG1, kappa, V domains shown)
VH: B1 VH
VL: B1 VL
modifications: MAL-Phe-C4-VC-PAB-DMEA-PNU-159682 bonded via cysteine residues of the antibody (chain and positions not stated)
notes: Antibody-drug conjugate of Ab1; also called Ab1-MAL-Phe-C4-VC-PAB-DMEA-PNU-159682
In test [14], B10 came in with a Kd of 0.11 nM.

B11: ADC-F (antibody, human IgG1, kappa, V domains shown)
VH: B1 VH
VL: B1 VL
modifications: SC-VC-PAB-DM1 bonded via lysine residues of the antibody (chain and positions not stated)
Turning to B11, in test [1], the “IC50, cell viability … A2008 cells” value is greater than 1000 nM; the “IC50, cell viability … Bt549 cells” value was greater than 1000 nM; the “IC50, cell viability … DOHH2 cells” value was greater than 1000 nM; the “IC50, cell viability … HBL-1 cells” value was greater than 1000 nM. Moreover, in [1], the “IC50, cell viability … HCC1187 cells” value was greater than 1000 nM; the “IC50, cell viability … JHOM1 cells” value was greater than 1000 nM; the “IC50, cell viability … MDA-MB-468 cells” value was greater than 1000 nM; the “IC50, cell viability … SKOvr3 cells” value is greater than 1000 nM. For the same molecule, in test [1], the “IC50, cell viability … TMD-8 cells” value was greater than 1000 nM and the “IC50, cell viability … TOV112D cells” value is greater than 1000 nM.

B12: ADC-M (antibody, human IgG1, kappa, V domains shown)
VH: B1 VH
VL: B1 VL
modifications: MAL-Phe-C4-VC-PAB-MMAE bonded via cysteine residues of the antibody (chain and positions not stated)
notes: Antibody-drug conjugate of Ab1; also called Ab1-MAL-Phe-C4-VC-PAB-MMAE
Regarding B12, the Kd in test [15] amounted to 0.12 nM.

B13: ADC-O (antibody, human IgG1, kappa, V domains shown)
VH: B1 VH
VL: B1 VL
modifications: MAL-C2-Gly3-EDA-PNU-159682 bonded via cysteine residues of the antibody (chain and positions not stated)
notes: Antibody-drug conjugate of Ab1; also called Ab1-MAL-C2-Gly3-EDA-PNU-159682
On to B13, for which, in test [16], the affinity, expressed as Kd, was 0.12 nM.

B14: 4A5 (antibody, V domains shown)
VH: EVKLVESGGGLVKPGGSLKLSCAASGFTFSSYAMSWVRQIPEKRLEWVASISRGGTTYYPDSVKGRFTISRDNVRNILYLQMSSLRSEDTAMYYCGRYDYDGYYAMDYWGQGTSVTVSS
VL: DIKMTQSPSSMYASLGERVTITCKASPDINSYLSWFQQKPGKSPKTLIYRANRLVDGVPSRFSGGGSGQDYSLTINSLEYEDMGIYYCLQYDEFPYTFGGGTKLEMK
notes: also called anti-ROR1 antibody 4A5
The molecule B14 returned an EC50 in test [5] of 0.121 µg/mL.

B15: ADC-T (antibody, V domains shown)
VH: B14 VH
VL: B14 VL
modifications: MAL-VC-PAB-MMAE bonded via cysteine residues of the antibody (positions not stated)
notes: Antibody-drug conjugate of 4A5; also called 4A5-MAL-VC-PAB-MMAE
On to B15, for which the EC50 in [5] is 0.193 µg/mL.

B16: D10 (antibody, V domains shown)
VH: QVQLKESGPGLVAPSQTLSITCTVSGFSLTSYGVHWVRQPPGKGLEWLGVIWAGGFTNYNSALKSRLSISKDNSKSQVLLKMTSLQTDDTAMYYCARRGSSYSMDYWGQGTSVIVSS
VL: EIVLSQSPAITAASLGQKVTITCSASSNVSYIHWYQQRSGTSPRPWIYEISKLASGVPVRFSGSGSGTSYSLTISSMEAEDAAIYYCQQWNYPLITFGSGTKLEIQ
notes: also called antibody D10
B16 yielded an EC50 in test [6] of 0.25 µg/mL.

B17: ADC-S (antibody, V domains shown)
VH: B16 VH
VL: B16 VL
modifications: MAL-VC-PAB-MMAE bonded via cysteine residues of the antibody (positions not stated)
notes: Antibody-drug conjugate of D10; also called D10-MAL-VC-PAB-MMAE
With B17, in [6], the midpoint of the response, the EC50, lay at 0.15 µg/mL.
